Source: the supplement of paper PMC7877785
± gives the uncertainty stated by the source.

Test: self-splicing fitness, log relative to wild type (ln ratio); higher = more splicing; Tetrahymena group I intron in knt gene, E. coli kanamycin selection, DiMSum; sequences stand for … in CUCUCU…GGAGGGAAAAGUUAUCAGGCAUGCACCUGGUAGCUAGUCUUUAAACCAAUAGAUUGCAUCGGUUUAAAAGGCAAGACCGUCAAAUUGCGGGAAAGGGGUCAACAGCCGUUCAGUACCAAGUCUCAGGGGAAACUUUGAGAUGGCCUUGCAAAGGGUAUGGUAAUAAGCUGACGGACAUGGUCCUAACCACGCAGCCAAGUCCUAAGUCAACAGAUCUUCUGUUGAUAUGGAUGCAGUUCACAGACUAAAUGUCGGUCGGGGAAGAUGUAUUCUUCUCAUAAGAUAUAGUCGGACCUCUCCUUAAUGGGAGCUAGCGGAUGAAGUGAUGCAACACUGGAGCCGCUGGGAACUAAUUUGUAUGCGAAAGUAUAUUGAUUAGUUUUGGAGUACUCGUGGUCG
Procedure, shortened: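 Colonies from six replicate transformations of E. coli BL21(DE3) were pooled and amplicon-sequenced on an Illumina HiSeq 2500. The library placed an intron with all eight P1ex-region nucleotides randomised inside the knt kanamycin-resistance gene on pET-22b(+), and cells grew overnight at 37°C or 30°C on LB agar with or without 25 μg/mL kanamycin (plus 100 μg/mL carbenicillin, 50 μM IPTG, 0.2% rhamnose). Fitness is the DiMSum error-weighted combination of wild-type-normalised replicate fold changes, kanamycin versus none.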

Sequence	self-splicing fitness (ln) (30 °C)	self-splicing fitness (ln) (37 °C)
CACUAGCAAUAUUACGUGAC	-2.12 ± 0.14	-2.36 ± 0.19
CACUAGCAAUAUUACGUGAG	-3.33 ± 0.14	-2.91 ± 0.23
CACUAGCAAUAUUACGUUCA	-2.34 ± 0.17	-2.49 ± 0.2
CAGAAGCAAUAUUACGAACG	-0.0252 ± 0.12	0.182 ± 0.16
CAGAAGCAAUAUUACGAUAA	-2.32 ± 0.17	-2.02 ± 0.26
CAGAAGCAAUAUUACGAUCU	-1.88 ± 0.12	-0.995 ± 0.1
CAGAAGCAAUAUUACGAUUA	-2.93 ± 0.17	-1.51 ± 0.12
CAGAAGCAAUAUUACGCAUC	-4.43 ± 0.37	-2.37 ± 0.14
CAGAAGCAAUAUUACGCAUU	-4.37 ± 0.27	-2.92 ± 0.2
CAGAAGCAAUAUUACGCCGG	-0.314 ± 0.13	-0.619 ± 0.17
CAGAAGCAAUAUUACGCGAU	-4.46 ± 0.32	-2.59 ± 0.21
CAGAAGCAAUAUUACGCGCU	-2.62 ± 0.17	-1.92 ± 0.18
CAGAAGCAAUAUUACGCUGA	-2.87 ± 0.18	-1.98 ± 0.15
CAGAAGCAAUAUUACGCUUU	-2.99 ± 0.17	-3.59 ± 0.26
CAGAAGCAAUAUUACGGACU	-2.88 ± 0.27	-0.24 ± 0.31
CAGAAGCAAUAUUACGGCAG	-0.0496 ± 0.063	0.33 ± 0.083
CAGAAGCAAUAUUACGGCGU	-2.01 ± 0.18	-1.18 ± 0.18
CAGAAGCAAUAUUACGGCUC	-2.64 ± 0.28	-0.31 ± 0.21
CAGAAGCAAUAUUACGGUGU	-3.05 ± 0.12	-2.22 ± 0.14
CAGAAGCAAUAUUACGUCGA	-2.1 ± 0.13	-0.369 ± 0.1
CAGAAGCAAUAUUACGUGAG	-1.05 ± 0.064	-0.806 ± 0.076

Sequence	self-splicing fitness (ln) (30 °C)	self-splicing fitness (ln) (37 °C)
CAGCAGCAAUAUUACGACCG	-0.0535 ± 0.096	0.48 ± 0.12
CAGCAGCAAUAUUACGACUG	-3.64 ± 0.24	-2.76 ± 0.33
CAGCAGCAAUAUUACGAGGC	-3.04 ± 0.17	-2.92 ± 0.2
CAGCAGCAAUAUUACGCAAA	-3.14 ± 0.34	-1.77 ± 0.23
CAGCAGCAAUAUUACGCUCA	-0.65 ± 0.085	-0.0891 ± 0.11
CAGCAGCAAUAUUACGCUGG	-2.69 ± 0.15	-2.43 ± 0.17
CAGCAGCAAUAUUACGGAAA	-3.12 ± 0.14	-2.19 ± 0.16
CAGCAGCAAUAUUACGGACU	-2.43 ± 0.21	-1.41 ± 0.13
CAGCAGCAAUAUUACGGCGA	-0.356 ± 0.11	-0.114 ± 0.12
CAGCAGCAAUAUUACGGUAA	-1.97 ± 0.12	-1.41 ± 0.12
CAGCAGCAAUAUUACGUAGU	-3.03 ± 0.12	-2.56 ± 0.13
CAGCAGCAAUAUUACGUAUU	-3.51 ± 0.25	-2.23 ± 0.22
CAGCAGCAAUAUUACGUGGA	-3.09 ± 0.13	-1.84 ± 0.12
CAGGAGCAAUAUUACGAAGG	-1.43 ± 0.13	-0.955 ± 0.18
CAGGAGCAAUAUUACGAAUA	-3.47 ± 0.29	-1.49 ± 0.24
CAGGAGCAAUAUUACGACAU	-3.768 ± 0.031	-2.94 ± 0.046
CAGGAGCAAUAUUACGACGG	-1.44 ± 0.054	-0.588 ± 0.053
CAGGAGCAAUAUUACGCCUC	-2.08 ± 0.23	–
CAGGAGCAAUAUUACGCGUU	-3.4 ± 0.17	-2.01 ± 0.19
CAGGAGCAAUAUUACGCUUA	-2.86 ± 0.21	-2.02 ± 0.21
CAGGAGCAAUAUUACGGCCU	-2.22 ± 0.24	-1.42 ± 0.31
